Results taken from doi:10.1101/356592 (bioRxiv, 2018).

B1: His6-tagged Mei5-Sae3 heterodimer (complex, Saccharomyces cerevisiae)
chain 1: MHNQEEWLDKDKTLVNEEENTCINHSYTKKDTNNYRVGKSGIKDLKKPTNQKEIAIKNRELTKQLTLLRQENNHLQQACKILSENKIIENRKSIEKWRTICEMELSFILNSTLIKINRMGGYKDFLEKEMEAKKRRLEYQIDNGMEDQICEIKESDDFRQLSEVEKQEWESQMNEQLKELEKKKIAELEKLNKVLHDSEGKDFGMAELCTRLKLDYSLIFPQ
chain 2: MNYLETQLNKKQKQIQEYESMNGNLIKMFEQLSKEKKNDETPKKISSTYIKELKEYNELRDAGLRLAQIIADEKQCKIKDVFEEIGYSMKD
B2: His6-tagged Dmc1 (natural protein, Saccharomyces cerevisiae, UniProt P25453 1-334, looked up)
chain: MSVTGTEIDSDTAKNILSVDELQNYGINASDLQKLKSGGIYTVNTVLSTTRRHLCKIKGLSEVKVEKIKEAAGKIIQVGFIPATVQLDIRQRVYSLSTGSKQLDSILGGGIMTMSITEVFGEFRCGKTQMSHTLCVTTQLPREMGGGEGKVAYIDTEGTFRPERIKQIAEGYELDPESCLANVSYARALNSEHQMELVEQLGEELSSGDYRLIVVDSIMANFRVDYCGRGELSERQQKLNQHLFKLNRLAEEFNVAVFLTNQVQSDPGASALFASADGRKPIGGHVLAHASATRILLRKGRGDERVAKLQDSPDMPEKECVYVIGEKGITDSSD

Experiments:
[1] = molecular target: Replication protein A (RPA) (Saccharomyces cerevisiae, UniProt P22336 1-621; P26754 1-273; P26755 1-122); assay: pull-down
Chain of Replication protein A (RPA) (P22336 whole entry, chain 1 of 3): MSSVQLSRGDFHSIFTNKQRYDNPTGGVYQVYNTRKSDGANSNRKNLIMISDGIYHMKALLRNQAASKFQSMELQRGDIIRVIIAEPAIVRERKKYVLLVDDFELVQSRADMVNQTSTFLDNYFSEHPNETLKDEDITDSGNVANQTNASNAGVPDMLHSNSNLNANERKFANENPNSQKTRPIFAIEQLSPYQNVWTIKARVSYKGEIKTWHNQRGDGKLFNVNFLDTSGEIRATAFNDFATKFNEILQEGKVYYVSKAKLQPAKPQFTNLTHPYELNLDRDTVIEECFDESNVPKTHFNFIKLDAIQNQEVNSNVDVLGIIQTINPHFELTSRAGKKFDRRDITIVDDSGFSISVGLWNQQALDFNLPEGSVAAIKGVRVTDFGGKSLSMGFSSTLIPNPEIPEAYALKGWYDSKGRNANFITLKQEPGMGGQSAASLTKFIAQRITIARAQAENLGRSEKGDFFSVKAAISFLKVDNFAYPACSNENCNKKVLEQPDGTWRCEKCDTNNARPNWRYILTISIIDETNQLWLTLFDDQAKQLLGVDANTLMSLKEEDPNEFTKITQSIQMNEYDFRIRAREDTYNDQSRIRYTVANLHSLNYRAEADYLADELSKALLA
Chain of Replication protein A (RPA) (P26754 whole entry, chain 2 of 3): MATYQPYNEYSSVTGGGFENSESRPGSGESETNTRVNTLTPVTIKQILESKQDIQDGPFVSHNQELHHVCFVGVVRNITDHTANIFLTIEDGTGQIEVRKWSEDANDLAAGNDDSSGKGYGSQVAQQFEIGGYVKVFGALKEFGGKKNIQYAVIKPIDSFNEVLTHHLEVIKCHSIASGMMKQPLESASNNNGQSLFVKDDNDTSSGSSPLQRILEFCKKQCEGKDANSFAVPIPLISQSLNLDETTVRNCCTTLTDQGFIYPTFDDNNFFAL
Chain of Replication protein A (RPA) (P26755 whole entry, chain 3 of 3): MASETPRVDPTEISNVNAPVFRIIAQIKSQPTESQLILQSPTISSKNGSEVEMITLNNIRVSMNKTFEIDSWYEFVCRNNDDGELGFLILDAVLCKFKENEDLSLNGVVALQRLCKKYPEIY

His6-tagged Dmc1 = molecular target: B2; assay: co-IP

Binder	binding result [1]	binding result (His6-tagged Dmc1)
B1	binds	binds
B2	binds	–
